Experimental data reported in patent US20140294731A1 (AC IMMUNE S A, published 2014).
Positions count from the first letter of the chain named. Where no end group is shown, it is not given here. [ ]: non-standard residue; d: D form. The star is where a group is joined. Biotin = O=C1N[C@H]2[C@H](CS[C@H]2CCCCC(=O)*)N1; pS = N[C@@H](COP(=O)(O)O)C(=O)O; LC linker = not defined here

T1: T3.30: Biotin-LC linker-GVYKS[PO3H2]PVVSGDTS[PO3H2]PRHL-NH2 (reading uncertain; also: printed as Biotin-LC linker-GVYKS[PO3H2]PVVSGDTS[PO3H2]PRHL-NH2)
T1 construct: Human Tau 393-408 with an added N-terminal Gly; two lots used: MI89P9-P12-2 (64% pure) and MI89P9-P12-3 (87% pure); also called Phospho-tau peptide; phosphopeptide T3.30
T1 peptide: {Biotin-LC linker}-GVYK[pS]PVVSGDT[pS]PRHL-NH2

T2: pTau peptide T3.5: Tau393-408 [pS396/pS404] (human)
T2 construct: Synthetic peptide (PolyPeptide Laboratories), coated on ELISA plates at 10 µg/mL; also called Tau p-peptide; T3: Tau 393-408 [pS396, pS404]
T2 peptide: VYK[pS]PVVSGDT[pS]PRHL

T3: non-phosphorylated Tau peptide T3.6: Tau393-408 (human)
T3 construct: Synthetic peptide (PolyPeptide Laboratories); also called non-phospho counterpart of the antigenic peptide; non-phospho-peptide
T3 peptide: VYKSPVVSGDTSPRHL

B1: ACI-35-4A6-Ab1 (antibody, IgG2b, V domains shown)
VH: QVQLQQPGAELLKPGASVKLSCKASGYTFTSYWMHWVKQRPGRGLEWIGRIDPNSDRTKYNEKFKRKATLTVDKSSSTAYMQLSSLTSEDSAVYYCARDDYAWFAYWGQGTLVTVSA
VL: DVLMTQTPLSLPVSLGDQASISCRSSQSIVHSNGNTYLEWYLQKPGQSPKLLIYKLSNRFSGVPDRFSGSGSGTDFTLKISRVEAEDLGVYYCFQGSHVPPTFGGGTKLEIK
notes: also called ACl-35-4A6-Ab1; hybridoma A4-4A6-18
B2: ACI-35-1D2-Ab1 (antibody, IgG2a, V domains shown)
VH: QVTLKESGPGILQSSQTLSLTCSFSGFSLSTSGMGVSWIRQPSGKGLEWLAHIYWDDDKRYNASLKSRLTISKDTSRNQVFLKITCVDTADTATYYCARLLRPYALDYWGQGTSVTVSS
VL: NILMTQSPSSLAVSAGEKVTMSCKSSQSVLYSSNQKNYLAWYQQKPGQSPKLLIYWASTRESGVPDRFTGSGSGTDFTLTISSVQAEDLAVYYCLQYLSSLTFGAGTKLELK
notes: Biotinylated (-BT) in the AlphaLISA; also called ACl-35-1D2-Ab1; hybridoma A6-1D2-12
B3: ACI-35-2A1-Ab1 (antibody, IgG2b, V domains shown)
VH: EVQLQQSGPELVKPGASVKISCKASGYTFTDYYMNWVKQSHGKSLEWIGDINPNNGGTSYNQKFKGKATLTVDKSSSTAYMELRSLTSEDSAVYYCVREGRFAYWGHGTLVTVSA
VL: DIVMTQAAPSVPVTPGESVSISCRSSKSLLHSNGNTYLYWFLQRPGQSPQLLIHRMSNLASGVPDRFSGSGSGTAFTLRISRVEAEDVGVYYCMQHLKSPYTFGGGTKLEIK
notes: Biotinylated (-BT) in the AlphaLISA and as detector in the Setup 1 ELISA; also called ACl-35-2A1-Ab1; hybridoma A4-2A1-18
B4: ACI-35-4A6-Ab2 (antibody, V domains shown)
VH: B3 VH
VL: B3 VL with H54Y
notes: also called ACl-35-4A6-Ab2; hybridoma A4-4A6-48
B5: ACI-35-2G5-Ab1 (antibody, IgG2a, V domains shown)
VH: QVQLKQSGAELVRPGASVKLSCKASGYTFTDYYINWVKQRPGQGLEWIARIYPGRGNIYYNEKFKGKATLTAEKSSSTAYMQLSSLTSEDSAVYFCARFWDVTYWGQGTLVTVSA
VL: B1 VL with Y41F, L56V, P101Y
notes: also called ACl-35-2G5-Ab1; ACl-35-2G5-AB1
B6: ACI-35-2G5-Ab2 (antibody, IgG2b, V domains shown)
VH: B3 VH with Y27F, N61H, H107Q
VL: DIVMTQSQKFMSTSVGDRVSVTCKASQNVGTNVAWYQQKPGQSPKALIYSASYRYSGVPDRFTGSGSGTDFTLTISNVQSEDLAEYFCQQYNSYPYTFGGGTKLEIK
notes: also called ACl-35-2G5-Ab2; ACl-35-2G5-AB2
B7: ACI-35-2G5-Ab3 (antibody, IgG2b, V domains shown)
VH: B3 VH with Y27F, N61H, H107Q
VL: B6 VL
notes: Biotinylated (-BT) in the AlphaLISA and as detector in the Setup 1 ELISA; also called ACl-35-2G5-Ab3; ACl-35-2G5-AB3

Legend:
[1] = target: T1, T3.30: Biotin-LC …; assay: SPR (Biacore X), T3.30 on streptavidin chip, antibody injected, 1:1 Langmuir fit; peptide lot 87% pure
Procedure: (§1) All SPR experiments were carried out on a Biacore X instrument (GE Healthcare). Sensor chip SA (Streptavidin derivatized carboxymethyl dextran) was purchased from GE Healthcare. Running buffer was PBS (Dulbecco's PBS, Sigma D8537). Non-covalently bound Streptavidin was firstly removed from the sensor surface by injecting 8 pulses (each ˜1 μL) of 16 mM NaOH (aq). Phospho-tau peptide was then solubilized in PBS to give a final peptide concentration of 1 μM and then injected (35 μL) over flow cell (fc) 2 of the sensor chip at 5 μl/min. After coupling, a final immobilization level of 130 RUs was obtained. To study the binding of the antibodies to the chip surface, several concentrations of antibodies were prepared by serial 2-fold dilutions with running buffer. The injections were performed over both fc 1 and 2 at a flow rate of 50 μL/min for 120 s. Flow cell 1 was not derivatized and responses of fc 1 were subtracted from fc 2 to correct for instrument noise and bulk refractive changes. After each injection, the surfaces were washed immediately with running buffer for 100s. To remove any remaining bound antibody from the chip, surface regeneration was performed by injecting 1 μL of 10 mM Glycine-HCl pH 1.7. Kinetic analyses were performed using algorithms for numerical integration and global analysis using BIAevaluation 3.0. The sensograms obtained for injections of antibody at different concentrations were overlaid and the baselines adjusted to zero. For curve fitting, all data were fit simultaneously to a 1:1 homogeneous (Langmuir) model.

[2] = target: T4, full-length (441 aa) Tau protein (SignalChem) (human, UniProt P10636 1-758); assay: ELISA, plate-coated protein; grade (+ Good binding)
T4 construct: Bought recombinant protein; also called Full-length Tau; non-phospho full-length Tau protein

[3] = target: T1, T3.30: Biotin-LC …; assay: SPR (Biacore X), T3.30 on streptavidin chip, antibody injected, 1:1 Langmuir fit; peptide lot 64% pure
Procedure: as §1

[4] = target: T2, pTau peptide T3.5: Tau393-408 …; assay: hybridoma supernatant ELISA screen (conclusion of Example 1)
Procedure: (§2) Hybridomas ELISA screen was performed on pTau peptide (ACl-35, T3.5: Tau393-408[pS396/pS404; PolyPeptide Laboratories, Hillerød, Denmark), the corresponding non-phosphorylated Tau peptide (T3.6: Tau393-408, PolyPeptide Laboratories), phosphorylated full-length (441aa) Tau protein (pTau protein, Vandebroek et al., 2005) and full-length (441aa) Tau protein (Tau protein, SignalChem, Richmond, Canada). Finally Bovine Serum Albumin (BSA) was used as negative control.
(§3) Plates were coated with 10 μg/ml of corresponding Tau peptide and 1 μg/ml of corresponding Tau protein overnight at 4° C. After washing each well with PBS-0.05% Tween 20 and blocking with 1% BSA in PBS-0.05% Tween 20, undiluted hybridoma supernatant or medium negative control were added to the plates and incubated at 37° C. for 2 hours. After washing plates were incubated with an alkaline phosphatase (AP)-conjugated anti-mouse IgG total antibody (Jackson Laboratories, Baltimore, Pa., USA) for 2 hours at 37° C. After washing plates were incubated with pNPP (para-nitro-phenyl-phosphate), the phosphatase substrate for AP, and read at 405 nm using an ELISA plate reader. Results are expressed as O.D. (Optical Density).

[5] = target: T3, non-phosphorylated Tau peptide T3.6: …; assay: as above
Procedure: as §2, §3

[6] = target: T4, full-length (441 aa) Tau protein …; assay: ELISA, plate-coated protein
[7] = target: T5, phosphorylated full-length (441 aa) Tau protein (human, UniProt P10636 1-758, phosphorylated; the sites are not stated (preparation cited as Vandebroek et al., 2005)); assay: ELISA, plate-coated protein
T5 construct: Full-length 441 aa Tau; Coated at 1 µg/mL; also called pTau protein; Full-length pTau
T5 sequence (P10636 other isoform, or with tags, fused parts or gaps limits assumed): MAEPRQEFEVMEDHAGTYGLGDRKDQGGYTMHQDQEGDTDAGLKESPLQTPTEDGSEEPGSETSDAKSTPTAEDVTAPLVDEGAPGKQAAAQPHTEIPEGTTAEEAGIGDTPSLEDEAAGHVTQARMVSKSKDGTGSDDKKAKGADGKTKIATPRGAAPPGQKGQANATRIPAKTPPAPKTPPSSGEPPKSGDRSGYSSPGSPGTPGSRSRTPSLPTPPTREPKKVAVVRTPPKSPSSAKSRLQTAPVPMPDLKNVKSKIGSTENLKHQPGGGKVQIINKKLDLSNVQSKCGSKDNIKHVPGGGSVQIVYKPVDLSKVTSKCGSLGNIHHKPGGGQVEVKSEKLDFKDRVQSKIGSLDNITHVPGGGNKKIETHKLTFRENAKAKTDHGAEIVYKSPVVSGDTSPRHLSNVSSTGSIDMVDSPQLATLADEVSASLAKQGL

T4 sequence (P10636 other isoform, or with tags, fused parts or gaps limits assumed): as above

Binder	Kd [1] [nM]	koff [1] [s⁻¹]	kon [1] [M⁻¹ s⁻¹]	binding result [2]	Kd [3] [nM]	koff [3] [s⁻¹]	kon [3] [M⁻¹ s⁻¹]	binding result [4]	binding result [5]	binding result [6]	binding result [7]
B1	15	0.0017	110000	binds	16	0.0031	200000	–	–	–	–
B2	82	0.0018	22000	–	≤ 6	9.3e-06	1600	–	–	–	–
B3	38	0.001	27000	–	–	–	–	–	–	–	–
B4	–	–	–	–	–	–	–	binds	binds	–	–
B5	70	0.0022	32000	–	10	0.0053	480000	–	–	no binding (tested: up to 20 µg/mL antibody)	no binding (tested: up to 20 µg/mL antibody)
B6	10	0.00023	24000	–	–	–	–	–	–	–	–
B7	2	3.8e-05	17000	–	–	–	–	–	–	–	–
